Laboratory results as given in patent US20210275695A1 (CASE WESTERN RESERVE UNIVERSITY, published 2021).
Bridges are numbered along the chain shown (N, C = ends). Where no end group is shown, it is not given here. Side-chain parts run from the residue outwards. maleimide = maleimide group that reacts with the cysteine thiol to conjugate the peptide to the carrier (horseradish peroxidase); Gd(HP-DO3A) (azide, via triazole) = azido-Gd(HP-DO3A) gadolinium chelate, click-linked through a triazole; sulfo‑Cy5 = sulfo-cyanine 5 fluorescent label; HRP = horseradish peroxidase; PEG3 = NCCOCCOCCOCCC(=O)O

How the values were obtained:
[1] = molecular target: T1, EDB fragment (extradomain B of fibronectin), expressed in E. coli with an N-terminal 10xHis tag (UniProt P02751 1266-1356); experiment: SPR (Biacore T100), EDB protein immobilised on a CM5 chip, Scatchard plot
T1 construct: domain: EDB; also called EDB protein; purified EDB; not shown: N-terminal 10xHis tag from the pQE-T7-1 vector
Method: The ZD2 peptide sequence, TVRTSAD (SEQ ID NO: 1), was synthesized in solid phase using Fmoc chemistry. A short spacer, Fmoc-9-amino-4,7-dioxanonanoic acid (Fmoc-NH-PEG₂-CH₂CH₂COOH), and 5-hexynoic acid, were also sequentially conjugated in solid phase followed by trifluoroacetic acid (TFA) treatment, which yielded ZD2-PEG-propargyl. Azido-Gd(HP-DO3A) was synthesized as reported previously. Click chemistry reaction between ZD2-PEG-propargyl (1 Eq) and azido-Gd(HP-DO3A) (1.1 Eq) was performed in a 2:1 mixture of t-butanol and water under nitrogen following addition of [Cu(MeCN)₄]PF₆ (0.02 Eq) and TBTA (Tris[(1-benzyl-1H-1,2,3-triazol-4-yl)methyl]amine, 0.02 Eq). The final product, named ZD2-Gd(HP-DO3A), was purified by high performance liquid chromatography (HPLC) on an Agilent 1100 HPLC system equipped with a semi-preparative C18 column. […] The Gd(III) content was measured by inductively coupled plasma optical emission spectroscopy (ICP-OES Optima 3100XL, Perkin-Elmer, Norwalk, Conn.). […] Sensorgrams generated from the binding between contrast agents and EDB were recorded with Biacore T100 (GE healthcare, Waukesha, Wis.), and analyzed using Scatchard plot. Affinity was calculated by fitting data into a linear line, with the slope of the line representing −1/Kd.

[2] = molecular target: T2, EDA (extradomain A of fibronectin) (UniProt P02751 1722-1811, limits assumed); experiment: ELISA, HRP-conjugated peptide
T2 construct: domain: EDA

[3] = molecular target: T1, EDB fragment (extradomain B of …); experiment: ELISA, HRP-conjugated peptide on EDB protein
[4] = molecular target: extradomain-B fibronectin (EDB-FN), human, as secreted or deposited by human cancer cells and in human tumour tissue (human) (UniProt P02751); experiment: histogram of Cy5 pixel intensities of ZD2-Cy5 staining (5 µM) of a human prostate tumor section, GS=9
[5] = molecular target: extradomain-B fibronectin (EDB-FN), human, as secreted or deposited by human cancer cells and in human tumour tissue (human) (UniProt P02751); experiment: histogram of Cy5 pixel intensities of ZD2-Cy5 staining (5 µM) of a human prostate tumor section, GS=7
[6] = molecular target: extradomain-B fibronectin (EDB-FN), human, as secreted or deposited by human cancer cells and in human tumour tissue (human) (UniProt P02751); experiment: histogram of Cy5 pixel intensities of ZD2-Cy5 staining (5 µM) of a human prostate BPH section, tissue with low EDB-FN
[7] = molecular target: T1, EDB fragment (extradomain B of …); experiment: phage display, four rounds of panning on immobilised purified EDB fragment
Method: The Ph.D C7C library (New England Biolabs, Beverly, Mass., USA) was used for screen EDB specific nonapeptides. Candidate peptides were selected by carrying out panning procedures for 4 rounds. In each round, purified EDB fragment (100 μg/ml) was immobilized on non-treated 96-well plates (Corning Costar, Tewksbury, Mass., USA) with overnight coating at 4° C. 0.5% BSA was used to block non-specific binding (1 hr, room temperature) followed by incubating with phages for 1 hr at room temperature. Extensive washing with PBST (0.1%, 0.3%, 0.5% […], respectively, for round 1-3) was used to remove non-binding phages before eluting bound phages by 0.1M Glycine-HC (pH 2.2) and neutralizing with Tris-HCl (pH 9.1). Eluted phages are tittered and amplified with E. coli (ER2758) according to the user's manual. Amplified phages in medium were purified by ultrafiltration and PEG/NaCl precipitation. At the end of round 4, properly diluted phages were cultured on LB/IPTG/Xgal plates and DNA from 29 randomly picked blue plaques were used for sequencing with supplied primers (New England Biolabs). Peptide sequences were resulted from translating of corresponding DNA sequences.
The Ph.D C7C library (New England Biolabs, Beverly, Mass.) was used to screen for EDB-specific cyclic nonapeptides. Candidate peptides were selected by panning for four rounds. […]

Sequence of extradomain-B fibronectin (EDB-FN), human, as secreted or deposited by human cancer cells and in human tumour tissue (human) (P02751 32-2477): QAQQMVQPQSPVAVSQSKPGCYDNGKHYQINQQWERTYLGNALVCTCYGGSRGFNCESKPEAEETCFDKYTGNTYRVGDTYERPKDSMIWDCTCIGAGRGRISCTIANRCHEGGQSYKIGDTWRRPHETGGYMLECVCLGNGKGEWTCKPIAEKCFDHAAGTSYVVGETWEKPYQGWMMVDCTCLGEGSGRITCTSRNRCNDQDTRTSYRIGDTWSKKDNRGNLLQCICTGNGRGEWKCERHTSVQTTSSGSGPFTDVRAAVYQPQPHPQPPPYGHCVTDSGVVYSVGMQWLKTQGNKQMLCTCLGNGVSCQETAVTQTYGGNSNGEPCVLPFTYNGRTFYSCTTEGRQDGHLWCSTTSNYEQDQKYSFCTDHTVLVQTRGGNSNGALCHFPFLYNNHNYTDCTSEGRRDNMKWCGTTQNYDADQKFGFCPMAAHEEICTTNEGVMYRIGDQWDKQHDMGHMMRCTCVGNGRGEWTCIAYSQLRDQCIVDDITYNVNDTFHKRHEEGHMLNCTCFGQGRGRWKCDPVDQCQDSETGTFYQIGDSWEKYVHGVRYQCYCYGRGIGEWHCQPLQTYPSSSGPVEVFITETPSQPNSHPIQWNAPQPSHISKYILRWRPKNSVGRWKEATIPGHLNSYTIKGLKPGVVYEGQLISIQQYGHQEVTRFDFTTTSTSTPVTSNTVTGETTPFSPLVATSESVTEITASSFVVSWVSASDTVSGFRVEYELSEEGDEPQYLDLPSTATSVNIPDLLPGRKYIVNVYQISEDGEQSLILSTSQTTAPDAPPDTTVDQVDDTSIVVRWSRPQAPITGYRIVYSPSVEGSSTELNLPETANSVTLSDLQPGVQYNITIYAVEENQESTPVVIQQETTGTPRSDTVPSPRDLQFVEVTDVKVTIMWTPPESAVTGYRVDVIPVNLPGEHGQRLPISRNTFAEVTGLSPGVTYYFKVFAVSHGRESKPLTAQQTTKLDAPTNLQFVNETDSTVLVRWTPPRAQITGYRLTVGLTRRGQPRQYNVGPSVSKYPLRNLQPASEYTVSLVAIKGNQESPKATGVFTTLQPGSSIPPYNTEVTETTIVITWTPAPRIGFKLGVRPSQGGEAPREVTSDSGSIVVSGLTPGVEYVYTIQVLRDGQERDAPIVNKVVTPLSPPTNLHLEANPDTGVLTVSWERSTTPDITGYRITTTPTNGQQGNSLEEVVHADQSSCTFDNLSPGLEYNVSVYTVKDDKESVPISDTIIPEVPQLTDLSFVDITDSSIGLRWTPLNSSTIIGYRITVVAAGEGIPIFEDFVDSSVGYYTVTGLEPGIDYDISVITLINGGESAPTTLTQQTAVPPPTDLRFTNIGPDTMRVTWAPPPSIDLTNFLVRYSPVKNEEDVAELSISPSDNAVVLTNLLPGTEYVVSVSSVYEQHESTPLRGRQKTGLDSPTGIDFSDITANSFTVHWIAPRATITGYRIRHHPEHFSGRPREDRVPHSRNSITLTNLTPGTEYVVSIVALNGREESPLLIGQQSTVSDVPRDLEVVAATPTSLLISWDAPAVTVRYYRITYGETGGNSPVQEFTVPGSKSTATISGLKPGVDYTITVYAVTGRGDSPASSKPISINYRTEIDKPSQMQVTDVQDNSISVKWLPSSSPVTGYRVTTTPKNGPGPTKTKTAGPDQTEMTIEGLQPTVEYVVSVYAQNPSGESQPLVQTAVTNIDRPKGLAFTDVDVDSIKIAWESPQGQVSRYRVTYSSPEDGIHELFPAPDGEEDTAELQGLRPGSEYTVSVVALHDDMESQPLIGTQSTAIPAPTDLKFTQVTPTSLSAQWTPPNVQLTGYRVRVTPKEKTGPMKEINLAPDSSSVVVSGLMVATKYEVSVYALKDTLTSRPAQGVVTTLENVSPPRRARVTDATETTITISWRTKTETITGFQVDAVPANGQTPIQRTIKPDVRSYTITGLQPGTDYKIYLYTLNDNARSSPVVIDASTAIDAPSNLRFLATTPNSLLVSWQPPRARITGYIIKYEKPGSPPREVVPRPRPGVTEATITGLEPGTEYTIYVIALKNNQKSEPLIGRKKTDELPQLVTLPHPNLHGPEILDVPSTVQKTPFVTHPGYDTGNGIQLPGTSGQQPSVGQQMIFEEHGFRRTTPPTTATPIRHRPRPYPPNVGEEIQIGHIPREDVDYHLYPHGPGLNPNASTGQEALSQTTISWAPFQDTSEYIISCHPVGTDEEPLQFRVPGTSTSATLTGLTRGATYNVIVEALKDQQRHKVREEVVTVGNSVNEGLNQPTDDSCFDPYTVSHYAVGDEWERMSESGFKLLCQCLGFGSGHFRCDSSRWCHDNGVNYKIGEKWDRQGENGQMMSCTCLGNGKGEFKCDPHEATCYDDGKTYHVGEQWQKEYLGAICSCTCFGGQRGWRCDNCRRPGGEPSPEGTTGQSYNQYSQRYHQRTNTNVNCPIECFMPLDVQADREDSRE
T1 sequence (P02751 1266-1356): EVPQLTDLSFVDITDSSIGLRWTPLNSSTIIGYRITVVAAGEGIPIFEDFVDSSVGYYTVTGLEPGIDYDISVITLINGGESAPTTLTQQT
T2 sequence (P02751 1722-1811 limits assumed): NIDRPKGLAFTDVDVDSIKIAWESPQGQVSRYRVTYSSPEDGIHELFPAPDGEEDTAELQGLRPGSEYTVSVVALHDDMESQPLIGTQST

B1: ZD2-Gd(HP-DO3A) (linear ZD2 peptide TVRTSAD joined through PEG and a triazole to Gd(HP-DO3A)) (peptide)
peptide: {Gd(HP-DO3A) (azide, via triazole)-5‑hexynoic acid-9‑amino‑4,7‑dioxanonanoic acid}-TVRTSAD
modifications: also: Gd complex
notes: also called ZD2-Gd(DO3A)
In the case of B1, the Kd [1] is reported as 1700 nM.

B2: l-ZD2-HRP (linear ZD2 with C-terminal cysteine, NH2-TVRTSADC-COOH, conjugated to horseradish peroxidase) (peptide)
peptide: H-TVRTSADC([maleimide-HRP])-OH
B2: no binding [2].

B3: CERAK-HRP (peptide)
peptide: CERAK
modifications: also: conjugated to HRP, 'similarly' to l-ZD2-HRP
notes: Control peptide
B3: no binding [3].

B4: ZD2-Cy5 (cyclic ZD2 peptide … labelled with Cy5 through a short PEG linker) (peptide)
peptide: {sulfo‑Cy5-PEG3}-CTVRTSADC-OH
modifications: disulfide 1-9
With B4 the percent pixel counts of Cy5 pixel value 50 to 255 [4] was 72.2%, the percent pixel counts of Cy5 pixel value 50 to 255 [5] was 40% and the percent pixel counts of Cy5 pixel value 50 to 255 [6] was 2.1%.

B5: cyclic ZD2 peptide (CTVRTSADC) as selected by phage display (peptide)
peptide: CTVRTSADC
modifications: disulfide 1-9 (inferred); not fully specified
notes: also called cyclic nonapeptide ZD2
B5: binds [7].
